The values below come from the supplement of paper PMC9112550, “Optimization of the antimicrobial peptide Bac7 by deep mutational scanning” (BMC Biology, 2022).

The data set deals with Escherichia coli TOP10. The data set can be described thus: shrunken log2 fold change of peptide-encoding DNA abundance (4.5 h post-induction vs induction); higher = less antimicrobial activity (less host growth inhibition). The settings on record: time post-induction: 4.5 h; library: site-saturation at positions 5, 18, 19, 20.
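Note: peptides expressed intracellularly from a pBAD plasmid library in pooled LB shake-flask culture, induced with 0.3% L-arabinose, DNA abundance read by NGS, three biological replicates, DESeq2 with apeglm shrinkage.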

RRIRGRPPRLPRPRPRPACCPRP: the “shrunken log2 fold change” value amounted to 0.875. RRIRSRPPRLPRPRPRPEVDPRP: the “shrunken log2 fold change” value worked out at 0.51. As for RRIRHRPPRLPRPRPRPDLRPRP, the “shrunken log2 fold change” value was 0.0039. Regarding RRIRSRPPRLPRPRPRPYIMPRP, the “shrunken log2 fold change” value is -0.845. Under RRIRERPPRLPRPRPRPRAIPRP stands 0.0706. Regarding RRIRNRPPRLPRPRPRPCIWPRP, the “shrunken log2 fold change” value is 0.131. For RRIRQRPPRLPRPRPRPLVLPRP, the “shrunken log2 fold change” value is 0.00943. RRIRMRPPRLPRPRPRPQSHPRP: the “shrunken log2 fold change” value turned out to be 0.083. Under RRIRKRPPRLPRPRPRPCHMPRP stands -0.538.

For the sequence RRIRHRPPRLPRPRPRPQTNPRP, the “shrunken log2 fold change” value is -0.633. In the case of RRIRERPPRLPRPRPRPEFIPRP, the “shrunken log2 fold change” value was -0.335. As for RRIRFRPPRLPRPRPRPVLVPRP, the “shrunken log2 fold change” value was -0.288. For the sequence RRIRARPPRLPRPRPRPPSVPRP, the “shrunken log2 fold change” value stood at 0.479.

Consider RRIRKRPPRLPRPRPRPPRPPRP, for which the “shrunken log2 fold change” value came to 1.34. Regarding RRIRTRPPRLPRPRPRPWITPRP, the “shrunken log2 fold change” value is 0.0633. RRIRVRPPRLPRPRPRPYWGPRP: the “shrunken log2 fold change” value is -0.526. Regarding RRIRTRPPRLPRPRPRPFGNPRP, the “shrunken log2 fold change” value amounted to 0.101. Regarding RRIRSRPPRLPRPRPRPMHTPRP, the “shrunken log2 fold change” value was -0.139. For RRIRQRPPRLPRPRPRPKWFPRP, the “shrunken log2 fold change” value is -0.107. As for RRIRGRPPRLPRPRPRPCWFPRP, the “shrunken log2 fold change” value came out at 0.584. Consider RRIRTRPPRLPRPRPRPMMVPRP, for which the “shrunken log2 fold change” value is -0.18. For the sequence RRIRVRPPRLPRPRPRPIGRPRP, the “shrunken log2 fold change” value is -0.0725.

For RRIRLRPPRLPRPRPRPILGPRP, the “shrunken log2 fold change” value is -0.0186.

With RRIRFRPPRLPRPRPRPSKFPRP, the “shrunken log2 fold change” value is -0.434. For RRIRFRPPRLPRPRPRPCKKPRP, the “shrunken log2 fold change” value was -0.000348.

For RRIRYRPPRLPRPRPRPSKTPRP, the “shrunken log2 fold change” value is -0.0513.

RRIRMRPPRLPRPRPRPEASPRP: the “shrunken log2 fold change” value is 3.48. RRIRFRPPRLPRPRPRPPTAPRP: the “shrunken log2 fold change” value stood at 0.429. Under RRIRFRPPRLPRPRPRPPVAPRP stands 0.987; under RRIRFRPPRLPRPRPRPSKMPRP, -0.351.

RRIRHRPPRLPRPRPRPPWNPRP: the “shrunken log2 fold change” value was -0.0664. In the case of RRIRFRPPRLPRPRPRPSLLPRP, the “shrunken log2 fold change” value is -0.311. Consider RRIRVRPPRLPRPRPRPETPPRP, for which the “shrunken log2 fold change” value is 1.14. Consider RRIRPRPPRLPRPRPRPHAEPRP, for which the “shrunken log2 fold change” value was 0.206. Regarding RRIRWRPPRLPRPRPRPTSRPRP, the “shrunken log2 fold change” value was 0.0324.

RRIRCRPPRLPRPRPRPKTRPRP: the “shrunken log2 fold change” value was 0.305.

As to RRIRGRPPRLPRPRPRPYLQPRP, the “shrunken log2 fold change” value was -0.182. Regarding RRIRRRPPRLPRPRPRPIVSPRP, the “shrunken log2 fold change” value is -0.221. On to RRIRTRPPRLPRPRPRPWWRPRP, for which the “shrunken log2 fold change” value is -0.00919.

Take RRIRSRPPRLPRPRPRPQVGPRP: the “shrunken log2 fold change” value was -0.175.

For the sequence RRIRNRPPRLPRPRPRPLGPPRP, the “shrunken log2 fold change” value worked out at 0.0324. For the sequence RRIRHRPPRLPRPRPRPELWPRP, the “shrunken log2 fold change” value is 0.376. On to RRIRHRPPRLPRPRPRPPELPRP, for which the “shrunken log2 fold change” value amounted to 0.469. For RRIRRRPPRLPRPRPRPSMHPRP, the “shrunken log2 fold change” value amounted to 0.324.

Consider RRIRDRPPRLPRPRPRPQTTPRP, for which the “shrunken log2 fold change” value was determined as 0.0462.

As for RRIRTRPPRLPRPRPRPRQGPRP, the “shrunken log2 fold change” value amounted to 0.337.

For RRIRNRPPRLPRPRPRPKWRPRP, the “shrunken log2 fold change” value came out at 0.792. Consider RRIRWRPPRLPRPRPRPLYWPRP, for which the “shrunken log2 fold change” value was -0.34. For RRIRARPPRLPRPRPRPHEWPRP, the “shrunken log2 fold change” value is 0.311.

As for RRIRLRPPRLPRPRPRPMWTPRP, the “shrunken log2 fold change” value was -0.0582. RRIRQRPPRLPRPRPRPHTWPRP: the “shrunken log2 fold change” value was -0.206. In the case of RRIRMRPPRLPRPRPRPCMKPRP, the “shrunken log2 fold change” value was -0.125. As to RRIRERPPRLPRPRPRPCAKPRP, the “shrunken log2 fold change” value is 0.00616. Under RRIRIRPPRLPRPRPRPVRRPRP stands 0.377; under RRIRSRPPRLPRPRPRPIHLPRP, 0.0485; under RRIRDRPPRLPRPRPRPATMPRP, 0.168. In the case of RRIRARPPRLPRPRPRPFMIPRP, the “shrunken log2 fold change” value was -0.1. Turning to RRIRMRPPRLPRPRPRPSKQPRP, the “shrunken log2 fold change” value is 0.495. Turning to RRIRRRPPRLPRPRPRPTASPRP, the “shrunken log2 fold change” value was 0.146. The result for RRIRVRPPRLPRPRPRPPYIPRP reads -0.28; that for RRIRKRPPRLPRPRPRPEFGPRP, 0.0185; that for RRIRQRPPRLPRPRPRPEYDPRP, -0.168. As for RRIRLRPPRLPRPRPRPDQIPRP, the “shrunken log2 fold change” value was 0.018. As for RRIRLRPPRLPRPRPRPNFDPRP, the “shrunken log2 fold change” value stood at 0.0771. Under RRIRNRPPRLPRPRPRPWHNPRP stands -0.146; under RRIRPRPPRLPRPRPRPNERPRP, 0.181.

Take RRIRVRPPRLPRPRPRPMRNPRP: the “shrunken log2 fold change” value is -0.0233. Turning to RRIRGRPPRLPRPRPRPHFLPRP, the “shrunken log2 fold change” value was determined as 1.03. On to RRIRNRPPRLPRPRPRPEPEPRP, for which the “shrunken log2 fold change” value was 0.0273.

Regarding RRIRIRPPRLPRPRPRPLNIPRP, the “shrunken log2 fold change” value is -0.925. As to RRIRDRPPRLPRPRPRPFDWPRP, the “shrunken log2 fold change” value was found to be 0.374. RRIRNRPPRLPRPRPRPMFGPRP: the “shrunken log2 fold change” value was -0.23. Turning to RRIRSRPPRLPRPRPRPFDNPRP, the “shrunken log2 fold change” value was found to be 0.0211. Take RRIRGRPPRLPRPRPRPDMEPRP: the “shrunken log2 fold change” value turned out to be 0.864. Take RRIRWRPPRLPRPRPRPGAPPRP: the “shrunken log2 fold change” value turned out to be 0.641. Consider RRIRPRPPRLPRPRPRPRNYPRP, for which the “shrunken log2 fold change” value came out at 0.000451.

Take RRIRDRPPRLPRPRPRPDAFPRP: the “shrunken log2 fold change” value came out at 0.297. For the sequence RRIRQRPPRLPRPRPRPQEDPRP, the “shrunken log2 fold change” value was -0.0264. With RRIRNRPPRLPRPRPRPCGLPRP, the “shrunken log2 fold change” value amounted to 0.0441. Under RRIRMRPPRLPRPRPRPMGCPRP stands 0.0612; under RRIRERPPRLPRPRPRPGPHPRP, 0.00422. On to RRIRERPPRLPRPRPRPYPEPRP, for which the “shrunken log2 fold change” value was -0.918.

On to RRIRKRPPRLPRPRPRPHLKPRP, for which the “shrunken log2 fold change” value turned out to be 0.0906.

Regarding RRIRWRPPRLPRPRPRPEMYPRP, the “shrunken log2 fold change” value amounted to 0.144.

Take RRIRPRPPRLPRPRPRPPMPPRP: the “shrunken log2 fold change” value was determined as 0.442. With RRIRKRPPRLPRPRPRPMFSPRP, the “shrunken log2 fold change” value is -0.0859. As to RRIRRRPPRLPRPRPRPFPRPRP, the “shrunken log2 fold change” value was 0.272. Consider RRIRPRPPRLPRPRPRPDLWPRP, for which the “shrunken log2 fold change” value turned out to be 0.344. For the sequence RRIRFRPPRLPRPRPRPFHAPRP, the “shrunken log2 fold change” value is -0.393. On to RRIRMRPPRLPRPRPRPQIPPRP, for which the “shrunken log2 fold change” value is -0.127. Take RRIRTRPPRLPRPRPRPIRIPRP: the “shrunken log2 fold change” value is -0.202. As for RRIRVRPPRLPRPRPRPHTRPRP, the “shrunken log2 fold change” value is -0.178. Under RRIRKRPPRLPRPRPRPEATPRP stands 3.17; under RRIRNRPPRLPRPRPRPREQPRP, -0.00697; under RRIRCRPPRLPRPRPRPTHEPRP, 0.628. Under RRIRIRPPRLPRPRPRPNSIPRP stands -0.366; under RRIRVRPPRLPRPRPRPQAQPRP, 0.173; under RRIRNRPPRLPRPRPRPYDDPRP, 0.00769. RRIRGRPPRLPRPRPRPKCTPRP: the “shrunken log2 fold change” value is 0.978. For the sequence RRIRRRPPRLPRPRPRPEVMPRP, the “shrunken log2 fold change” value was 0.212. Turning to RRIRRRPPRLPRPRPRPILKPRP, the “shrunken log2 fold change” value was found to be 0.333.

Take RRIRGRPPRLPRPRPRPHLAPRP: the “shrunken log2 fold change” value was 0.601. With RRIRNRPPRLPRPRPRPLTFPRP, the “shrunken log2 fold change” value was -0.0233. Turning to RRIRQRPPRLPRPRPRPSFLPRP, the “shrunken log2 fold change” value was -0.355. With RRIRNRPPRLPRPRPRPVWDPRP, the “shrunken log2 fold change” value is 0.325. Regarding RRIRMRPPRLPRPRPRPHECPRP, the “shrunken log2 fold change” value is 0.0178. Consider RRIRKRPPRLPRPRPRPYHFPRP, for which the “shrunken log2 fold change” value is -0.031. Regarding RRIRSRPPRLPRPRPRPNCAPRP, the “shrunken log2 fold change” value is -0.172. Turning to RRIRMRPPRLPRPRPRPMGPPRP, the “shrunken log2 fold change” value was 0.168. Turning to RRIRVRPPRLPRPRPRPAFTPRP, the “shrunken log2 fold change” value was -0.124. Under RRIRWRPPRLPRPRPRPITSPRP stands -0.122; under RRIRWRPPRLPRPRPRPFRVPRP, -0.0169. With RRIRPRPPRLPRPRPRPASTPRP, the “shrunken log2 fold change” value worked out at 0.11. As to RRIRGRPPRLPRPRPRPWVNPRP, the “shrunken log2 fold change” value is 0.0175. Consider RRIRRRPPRLPRPRPRPDTHPRP, for which the “shrunken log2 fold change” value was -0.254. Consider RRIRPRPPRLPRPRPRPHQCPRP, for which the “shrunken log2 fold change” value was -0.0701. On to RRIRGRPPRLPRPRPRPGGWPRP, for which the “shrunken log2 fold change” value worked out at 1.58.

As for RRIRARPPRLPRPRPRPMYNPRP, the “shrunken log2 fold change” value is -0.48. In the case of RRIRHRPPRLPRPRPRPLDWPRP, the “shrunken log2 fold change” value was determined as 0.393.

Turning to RRIRGRPPRLPRPRPRPSDSPRP, the “shrunken log2 fold change” value was -0.0596.

Regarding RRIRLRPPRLPRPRPRPPCIPRP, the “shrunken log2 fold change” value was -0.519. RRIRNRPPRLPRPRPRPYDEPRP: the “shrunken log2 fold change” value is -0.0237.

Turning to RRIRDRPPRLPRPRPRPVESPRP, the “shrunken log2 fold change” value is -0.373. The result for RRIRSRPPRLPRPRPRPNGFPRP reads -0.0748; that for RRIRMRPPRLPRPRPRPEGGPRP, 1.33.
